In assay [1] the target is T1, purified recombinant A3G-His6 (human APOBEC3G with C-terminal Myc-His6 tag, expressed in 293T cells) (human), Q9HC16.
In assay [2] the target is T1, purified recombinant A3G-His6 (human …). In words: cell-based or functional assay.

T1 sequence (Q9HC16 whole entry): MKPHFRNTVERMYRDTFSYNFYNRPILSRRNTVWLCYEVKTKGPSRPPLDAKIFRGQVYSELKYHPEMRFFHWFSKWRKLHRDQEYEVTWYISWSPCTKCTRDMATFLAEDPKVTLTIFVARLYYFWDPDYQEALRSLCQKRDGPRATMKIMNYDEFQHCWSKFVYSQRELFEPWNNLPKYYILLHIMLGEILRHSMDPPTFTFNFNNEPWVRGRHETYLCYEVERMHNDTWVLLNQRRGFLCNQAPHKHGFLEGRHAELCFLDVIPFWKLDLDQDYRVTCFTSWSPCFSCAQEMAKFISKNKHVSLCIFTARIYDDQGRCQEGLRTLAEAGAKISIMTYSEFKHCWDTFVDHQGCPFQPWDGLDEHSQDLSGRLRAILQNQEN

As for QLIHLYYFDCFSESA (modifications not checked) [Vif105-119 peptide], in assay [1], the K'I came out at 92 nM and the Ki is 68 nM. Further, in assay [2], the IC50 of inhibition of A3G deaminase activity was 100 nM and the inhibition of A3G deaminase activity amounted to 1 µM.
VKHHMYISGKAKGWF (modifications not checked) [Vif25-39 peptide]: the K'I in assay [1] was 250 nM. In assay [2], the IC50 of inhibition of A3G deaminase activity was 600 nM, the IC50 of inhibition of deaminase activity of purified A3G (experimental repeat) amounted to 1000 nM and the inhibition of A3G deaminase activity came to 1 µM.

The Ki is a dissociation constant, usually derived from enzyme kinetics or from competition with a known ligand.

For the origin of these results see US20150111836A1, “CELLULAR APOBEC3 PROTEINS AND MODULATORS THEREOF FOR REGULATING DNA REPAIR PROCESSES AND TREATING PROLIFERATIVE DISEASES” (priority 2012, published 2015).
